Assay results taken from patent US11441131B2, “Heparosan synthases and use thereof for saccharide synthesis” (The Regents of the University of California, priority 2019, dated 2022).
Residue numbers refer to the chain shown, from its start. In names and notes the source's numbering stands. Where two headings read alike, the source gives them in different places.

B1: D222N (protein)
chain: MGSSHHHHHHSFEKIYTYNQALEAKLEKDKQTTSITDLYNEVAKSDLGLVKETNSANPLVSIIMTSHNTAQFIEASINSLLLQTYKNIEIIIVDDDSSDNTFEIASRIANTTSKVRVFRLNSNLGTYFAKNTGILKSKGDIIFFQDSDDVCHHERIERCVNILLANKETIAVRCAYSRLAPETQHIIKVNNMDYRLGFITLGMHRKVFQEIGFFNCTTKGSNDEFFHRIAKYYGKEKIKNLLLPLYYNTMRENSLFTDMVEWIDNHNIIQKMSDTRQHYATLFQAMHNETASHDFKNLFQFPRIYDALPVPQEMSKLSNPKIPVYINICSIPSRIAQLQRIIGILKNQCDHFHIYLDGYVEIPDFIKNLGNKATVVHCKDKDNSIRDNGKFILLEELIEKNQDGYYITCDDDIIYPSDYINTMIKKLNEYDDKAVIGLHGILFPSRMTKYFSADRLVYSFYKPLEKDKAVNVLGTGTVSFRVSLFNQFSLSDFTHSGMADIYFSLLCKKNNILQICISRPANWLTEDNRDSETLYHQYRDNDEQQTQLIMENGPWGYSSIYPLVKNHPKFTDLIPCLPFYFL
B2: T200A (protein)
chain: B1 chain with T200A, N222D
B3: I199A (protein)
chain: B1 chain with I199A, N222D
B4: R195A (protein)
chain: B1 chain with R195A, N222D
B5: D500N (protein)
chain: B1 chain with N222D, D500N
B6: L196A (protein)
chain: B1 chain with L196A, N222D
B7: Y176A (protein)
chain: B1 chain with Y176A, N222D
B8: T475A (protein)
chain: B1 chain with N222D, T475A
B9: T477A (protein)
chain: B1 chain with N222D, T477A

What was measured:
[1] = test system: His6-PmHS2; assay: Donor substrate specificity of GlcNAcT activity (HPLC), His6-PmHS2; assay type: biochemical, Pasteurella multocida; conditions: acceptor GlcAβ2AA
Excerpt: (§1) Donor substrate specificity assays. […] Chromatographic separation and detection were achieved similarly to that described above for kinetics studies.

[2] = test system: His6-Δ80PmHS2; assay: Donor substrate specificity of GlcNAcT activity (HPLC), His6-Δ80PmHS2; assay type: biochemical, Pasteurella multocida; conditions: acceptor GlcAβ2AA
Excerpt: as §1

[3] = Protein expression and purification; design: species or system E. coli BL21 (DE3); conditions: per L culture
Experimental: Protein expression and purification. The plasmid-bearing E. coli BL21(DE3) cells were cultured in 1 L of LB-rich media (10 g/L tryptone, 5 g/L yeast extract and 10 g/L NaCl) supplemented with ampicillin (100 μg/mL). Expression of the target protein was achieved by inducing the E. coli culture with 0.1 mM of isopropyl-1-thio-β-D-galactopyranoside (IPTG) when OD600 nm reached 0.8-1.0, followed by incubating at 20° C. for 20 h with shaking at 250 rpm in a C25KC incubator shaker (New Brunswick Scientific, Edison, N.J.). Histidine-tagged target proteins were purified from cell lysate. To obtain the cell lysate, cell pellet harvested by centrifugation at 2,795 g for 50 min was resuspended (25 mL/L cell culture) in lysis buffer (Tris-HCl, 100 mM, pH 8.0 with 0.1% Triton X-100). Sonication protocol was 2 s (sonication)/3 s (rest) for a total of 6 min on ice. Lysed cells were centrifuged at 5,000 g for 50 min and the supernatant (lysate) was collected. Purification of histidine-tagged proteins from the lysate was achieved using a Ni′-resin column. The column was pre-equilibrated with 10 column volumes of binding buffer (5 mM imidazole, 0.5 M NaCl, 50 mM Tris-HCl, pH 7.5). The lysate was then loaded, and the column was washed with 10 column volumes of binding buffer and 10 column volumes of washing buffer (16 mM imidazole, 0.5 M NaCl, 50 mM Tris-HCl, pH 7.5). The target protein was eluted with Tris-HCl buffer (50 mM, pH 7.5) containing imidazole (200 mM) and NaCl (0.5 M). The fractions containing the purified enzymes were collected, and stored at 4° C.

[4] = α1-4-GlcNAcT activity comparison of His6-Δ80PmHS2 and its D222N and D500N mutants; assay type: biochemical
Experimental: Reactions were stopped by heating reaction mixture at 70° C. for 10 min, followed by incubation on ice for 30 min and centrifugation at 11,337 g for 15 min. Supernatants were analyzed similarly to that described above for […].

[5] = β1-4-GlcAT activity comparison of His6-Δ80PmHS2 and its D222N and D500N mutants; assay type: biochemical
Experimental: Reactions were stopped by heating reaction mixtures at 70° C. for 10 min, followed by incubation on ice for 30 min and centrifugation at 11,337 g for 15 min. Supernatants were analyzed similarly to that described above for the coupled-enzyme reverse glycosylation assay.

[6] = Reverse glycosylation assay mimicking synthetic conditions; assay type: biochemical; conditions: 30 mM UDP, conditions mimicking synthetic reactions
Experimental: Reactions were stopped by heating reaction mixtures at 70° C. for 10 min, followed by incubation on ice for 30 min and centrifugation at 11,337 g for 15 min. Supernatants were analyzed similarly to that described above for time-course reverse glycosylation assays.

[7] = β1-4GlcA-transferase activity of designed mutants; assay type: biochemical
[8] = α1-4GlcNAc-transferase activity of designed mutants; assay type: biochemical

| Molecule | suitability as donor substrate [1] | suitability as donor substrate [2] | β1-4GlcA-transferase activity [7] | other results |
| --- | --- | --- | --- | --- |
| [N-]=[N+]=NCC(=O)N[C@H]1[C@@H](OP(=O)(O)OP(=O)(O)OC[C@H]2O[C@@H](n3ccc(=O)[nH]c3=O)[C@H](O)[C@@H]2O)O[C@H](CO)[C@@H](O)[C@@H]1O [UDP-GlcNAz] | suitable donor substrates | suitable donor substrates | – | – |
| [N-]=[N+]=NC1C(OP(=O)(O)OP(=O)(O)OCC2OC(n3ccc(=O)[nH]c3=O)C(O)C2O)OC(CO)C(O)C1O (stereo not drawn) [UDP-GlcN3] | not suitable donor substrates | not suitable donor substrates | – | – |
| O=C(N[C@H]1[C@@H](OP(=O)(O)OP(=O)(O)OC[C@H]2O[C@@H](n3ccc(=O)[nH]c3=O)[C@H](O)[C@@H]2O)O[C@H](CO)[C@@H](O)[C@@H]1O)C(F)(F)F [UDP-GlcNTFA] | suitable donor substrates | suitable donor substrates | – | – |
| UDP-GlcNAc6NAcPh | not suitable donor substrates | not suitable donor substrates | – | – |
| CC(=O)NC1C(OP(=O)(O)OP(=O)(O)OCC2OC(n3ccc(=O)[nH]c3=O)C(O)C2O)OC(COS(=O)(=O)O)C(O)C1O (stereo not drawn) [UDP-GlcNAc6S] | not suitable donor substrates | not suitable donor substrates | – | – |
| CC(=O)NC1C(OP(=O)(O)OP(=O)(O)OCC2OC(n3ccc(=O)[nH]c3=O)C(O)C2O)OC(CN=[N+]=[N-])C(O)C1O (stereo not drawn) [UDP-GlcNAc6N3] | suitable donor substrates | suitable donor substrates | – | – |
| O=c1ccn([C@@H]2O[C@H](COP(=O)(O)OP(=O)(O)O[C@H]3O[C@H](CO)[C@@H](O)[C@H](O)[C@H]3NS(=O)(=O)O)[C@@H](O)[C@H]2O)c(=O)[nH]1 [UDP-GlcNS] | not suitable donor substrates | not suitable donor substrates | – | – |
| B1 | – | – | – | expression level [3]: 50 to 60 mg/L; α1-4-GlcNAcT activity relative to His6-Δ80PmHS2 [4]: retained; β1-4-GlcAT activity relative to His6-Δ80PmHS2 [5]: lost; β1-4-GlcAT activity relative to His6-Δ80PmHS2 ([5]; listed as D291N): completely removed; reverse glycosylation oligosaccharide products [6]: no reverse glycosylation oligosaccharide products were observed |
| B2 | – | – | retained | – |
| B3 | – | – | retained | – |
| B4 | – | – | retained | – |
| B5 | – | – | – | expression level [3]: 60 to 70 mg/L; decrease of α1-4-GlcNAcT activity relative to His6-Δ80PmHS2 [4]: 548 fold; β1-4-GlcAT activity relative to His6-Δ80PmHS2 [5]: retained; reverse glycosylation oligosaccharide products [6]: no reverse glycosylation oligosaccharide products were observed |
| B6 | – | – | retained | – |
| B7 | – | – | retained | – |
| B8 | – | – | – | α1-4GlcNAc-transferase activity [8]: retained |
| B9 | – | – | – | α1-4GlcNAc-transferase activity [8]: retained |
